# Data reported in patent US20080280824A1, “COMPOSITIONS AND METHODS FOR TREATMENT OF CANCER OR NEURODEGENERATIVE DISEASE WITH PEPTIDE BASED MICROTUBULE STABILIZERS OR INHIBITORS” (University of Washington, priority 2007, published 2008).
# “Also recorded” adds a separate entry of the source.
# B1: R120G: single point mutant of human αB crystallin, Arg-120 replaced with glycine (protein)
# chain: MDIAIHHPWIRRPFFPFHSPSRLFDQFFGEHLLESDLFPTSTSLSPFYLRPPSFLRAPSWFDTGLSEMRLEKDRFSVNLDVKHFSPEELKVKVLGDVIEVHGKHEERQDEHGFISREFHGKYRIPADVDPLTITSSLSSDGVLTVNGPRKQVSGPERTIPITREEKPAVTAAPKK
# What was measured:
# Bovine brain tubulin [1] = target: T1, Bovine brain tubulin (Bos taurus, UniProt P81947+Q6B856); assay: Microtubule assembly assay (DAPI fluorescence, Microtubule Stabilization/Destabilization Assay kit); type: biochemical; conditions: for effect on total microtubule assembly / amount of microtubules formed in 45 minutes / effect on rate of microtubule assembly: peptide or control molecule; for effect on microtubule assembly, vs absence of αB crystallin: wt or mutant αB crystallin protein, tubulin alone normalized to 1.0
# T1 construct: Bovine brain tubulin was dissolved to 200 μM; purchased Cytoskeleton; Denver, Colo; host or cells: bovine brain
# T1 sequence (P81947 whole entry): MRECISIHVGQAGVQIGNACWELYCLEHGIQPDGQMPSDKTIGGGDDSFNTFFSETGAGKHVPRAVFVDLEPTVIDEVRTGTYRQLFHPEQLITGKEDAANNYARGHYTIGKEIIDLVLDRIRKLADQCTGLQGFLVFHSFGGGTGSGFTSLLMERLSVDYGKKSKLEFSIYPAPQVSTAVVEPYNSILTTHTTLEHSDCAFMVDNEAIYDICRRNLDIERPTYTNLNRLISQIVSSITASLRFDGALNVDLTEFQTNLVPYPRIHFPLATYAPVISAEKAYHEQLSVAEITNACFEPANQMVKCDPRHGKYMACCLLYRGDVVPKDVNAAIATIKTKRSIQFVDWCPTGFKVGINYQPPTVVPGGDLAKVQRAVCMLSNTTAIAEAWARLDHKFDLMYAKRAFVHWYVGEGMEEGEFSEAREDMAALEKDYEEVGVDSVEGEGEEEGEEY
# T1 sequence (Q6B856 whole entry): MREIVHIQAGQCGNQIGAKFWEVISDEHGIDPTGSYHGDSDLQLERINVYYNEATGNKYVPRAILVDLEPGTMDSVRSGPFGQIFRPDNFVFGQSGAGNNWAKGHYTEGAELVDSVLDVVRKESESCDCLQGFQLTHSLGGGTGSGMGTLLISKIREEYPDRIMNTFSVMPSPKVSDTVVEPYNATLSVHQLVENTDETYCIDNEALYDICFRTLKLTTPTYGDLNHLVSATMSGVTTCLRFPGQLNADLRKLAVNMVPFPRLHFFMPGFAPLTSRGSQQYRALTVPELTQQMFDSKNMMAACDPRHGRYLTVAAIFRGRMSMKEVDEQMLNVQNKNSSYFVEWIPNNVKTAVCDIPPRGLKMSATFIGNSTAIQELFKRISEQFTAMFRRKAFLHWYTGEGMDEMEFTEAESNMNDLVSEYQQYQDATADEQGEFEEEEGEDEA
# Method: Microtubule assembly assays. The effect of selected αB crystallin peptides on the in vitro assembly of tubulin into microtubules was evaluated using the Microtubule Stabilization/Destabilization Assay kit (Cytoskeleton; Denver, Colo.) as described previously. Bonne et al., J Biol Chem 260:2819-25, 1985. Bovine brain tubulin was dissolved to 200 μM in 80 mM PIPES, 2 mM MgCl2, 0.5 mM EGTA, 10 μM DAPI, 1 mM GTP pH 6.9. 8.5 μl of the tubulin was mixed with 40 μl of 80 mM PIPES, 2 mM MgCl2, 0.5 mM EGTA, 7.4 μM DAPI, 16% Glycerol, 1.1 mM GTP pH 6.9 and 4.3 μl of 2 mM peptide in 2.5% DMSO, 2 mM Paclitaxel (polymerization promoter) in 100% DMSO, 15 mM CaCl2 (polymerization inhibitor) in water, or 2.5% DMSO only. Microtubule assembly was monitored by measuring the fluorescence of DAPI, a molecule whose emission fluorescence at λ=460 is enhanced 8-fold when it is incorporated into assembled microtubules. Bonne et al., J Biol Chem 260:2819-25, 1985. Fluorescence of samples were continuously read on a Perkin Elmer Victor^3 V fluorescence plate reader (Excitation λ=355 nm, Emission λ=460 nm) at 37° C. for 45 minutes.
# The effect of wt and three mutant αB crystallins, Δ41-58, αAβ8, and Δ155-165 on the in vitro assembly of tubulin into microtubules was evaluated using the Microtubule Stabilization/Destabilization Assay kit described above (Cytoskeleton; Denver, Colo.). Bovine brain tubulin was dissolved to 200 μM in 80 mM PIPES, 2 mM MgCl2, 0.5 mM EGTA, 10 μM DAPI, 1 mM GTP pH 6.9. 8.5 μl of the tubulin was mixed with 40 μl of 80 mM PIPES, 2 mM MgCl2, 0.5 mM EGTA, 7.4 μM DAPI, 16% Glycerol, 1.1 mM GTP pH 6.9 and 4.3 μl of 80 μM protein in 20 mM Tris-Cl, pH8.0 or Tris-Cl buffer only. Fluorescence of samples were continuously read on a Perkin Elmer Victor^3 V fluorescence plate reader (Excitation λ=355 nm, Emission λ=460 nm) at 37° C. for 45 minutes.
# pre-formed microtubules = assay: Microtubule disassembly assay (DAPI fluorescence); type: biochemical, Bovine; conditions: for effect on microtubule disassembly / inhibition of microtubule disassembly: peptide 170 μM, 34 μM pre-formed microtubules; for effect on microtubule disassembly / inhibition of microtubule disassembly / effect on microtubule disassembly (words), vs absence of αB crystallin: 23° C., 20 minutes; for effect on microtubule disassembly (words), vs absence of αB crystallin: wt or mutant αB crystallin (6.8 μM and 34 μM), 34 μM microtubules
# Method: Microtubule disassembly assays. The effect of αB crystallin peptides and mutants on the in vitro disassembly of microtubules into soluble tubulin was evaluated using the Microtubule Stabilization/Destabilization Assay kit described above (Cytoskeleton; Denver, Colo.) as described previously^36. 34 μM pre-formed microtubules were incubated with the αB crystallin peptides (170 μM) or wt and mutant αB crystallins (6.8 μM and 34 μM) at 23° C. for 20 minutes. Incubation of microtubules at 23° C. results in the spontaneous disassembly of microtubules. The decrease in DAPI fluorescence at λ=460 nm was measured continuously for 20 minutes by exciting the samples at λ=355 nm using a Perkin Elmer Victor^3 V fluorescence plate reader.
# Bovine brain tubulin [2] = assay: Tubulin thermal aggregation assay (absorbance at 340 nm); type: biochemical; conditions: for effect on thermal aggregation of tubulin: synthetic peptide, 34 μM tubulin; for effect on tubulin aggregation, vs absence of αB crystallin: wt or mutant αB crystallin protein
# Method: Tubulin aggregation assays. The effect of αB crystallin peptides and mutants on the thermal aggregation of tubulin was evaluated using ultra-violet spectroscopy. Bovine brain tubulin was dissolved to 200 μM in 80 mM PIPES, 2 mM MgCl2, 0.5 mM EGTA, pH 6.9. 4.25 μl of 0.08, 0.4, or 2 mM test peptide or protein was diluted into 40 μl of 80 mM PIPES, 2 mM MgCl2, 0.5 mM EGTA, pH 6.9. 8.5 μl of the 200 μM tubulin was added to each sample. Samples were heated at 52° C. and the absorbance at λ=340 nm was measured continuously for 60 minutes using a Pharmacia Biotech Ultrospec 3000. GTP and glycerol were not present in the samples because they induce the assembly of microtubules.
# [3] = 34 μM tubulin, 37° C., 45 minutes, vs tubulin alone
# [4] = 34 μM tubulin, 37° C., vs tubulin alone
molecule,measurement,setting,value
LTITSSLSSDGV,effect on total microtubule assembly / amount of microtubules formed in 45 minutes,Bovine brain tubulin [1]; [3],increased
same,effect on total microtubule assembly / amount of microtubules formed in 45 minutes,"Bovine brain tubulin [1]; 34 μM tubulin, 37° C., 45 minutes, vs tubulin alone, listed as 131LTITSSLSSDGV142",promote microtubule assembly
same,effect on rate of microtubule assembly,Bovine brain tubulin [1]; [4],increased
same,effect on microtubule disassembly,pre-formed microtubules,no effect
same,effect on microtubule disassembly,pre-formed microtubules; listed as 131LTITSSLSSDGV142,inhibit microtubule disassembly
same,effect on thermal aggregation of tubulin,"Bovine brain tubulin [2]; 52° C., 60 minutes",decreased
same,effect on thermal aggregation of tubulin,"Bovine brain tubulin [2]; 52° C., 60 minutes, listed as 131LTITSSLSSDGV142",protected
"ERTIPITRE [synthetic peptide of human αB crystallin C-terminal extension, residues 156-164]",effect on total microtubule assembly / amount of microtubules formed in 45 minutes,Bovine brain tubulin [1]; [3],increased
same,effect on total microtubule assembly / amount of microtubules formed in 45 minutes,"Bovine brain tubulin [1]; 34 μM tubulin, 37° C., 45 minutes, vs tubulin alone, listed as 155ERTIPITRE165",promote microtubule assembly
same,effect on total microtubule assembly / amount of microtubules formed in 45 minutes,"Bovine brain tubulin [1]; 34 μM tubulin, 37° C., 45 minutes, vs tubulin alone, listed as 156ERTIPITRE164",promote microtubule assembly
same,effect on rate of microtubule assembly,Bovine brain tubulin [1]; [4],increased
same,effect on microtubule disassembly,pre-formed microtubules,decreased
same,inhibition of microtubule disassembly,pre-formed microtubules,~36%
same,effect on microtubule disassembly,pre-formed microtubules; listed as 156ERTIPITRE164,inhibit microtubule disassembly
same,effect on thermal aggregation of tubulin,"Bovine brain tubulin [2]; 52° C., 60 minutes",decreased
"wt αB crystallin: wild-type full-length human αB crystallin, small heat shock protein and molecular chaperone, expressed and purified",effect on microtubule assembly (words),"Bovine brain tubulin [1]; high αB crystallin concentrations, tubulin:αB crystallin ratios <1:4",inhibited
same,effect on microtubule assembly (words),Bovine brain tubulin [1]; molar ratios of tubulin to αB crystallin <1:2,inhibited microtubule assembly
same,effect on microtubule assembly (words),Bovine brain tubulin [1]; molar ratios of tubulin to αB crystallin between 4:1 and 1:2,favored the assembly of additional microtubules; also recorded: promoted
same,microtubule assembly,Bovine brain tubulin [1]; ratio of tubulin to αB crystallin 1:10,no microtubules were formed; also recorded: undetectable
same,amount of microtubules formed less than tubulin alone,"Bovine brain tubulin [1]; ratio of tubulin to αB crystallin <1:2, 34 μM tubulin",30-63%
same,effect on microtubule assembly (words),Bovine brain tubulin [1]; ratio of tubulin to αB crystallin >4:1,minimal
same,effect on microtubule assembly (words),"Bovine brain tubulin [1]; ratio of tubulin to αB crystallin >4:1, listed as αB crystallin",little or no effect
same,"microtubule assembly, normalized (absence of αB crystallin = 1.0)","Bovine brain tubulin [1]; ratios <1.4, FIG. 5",< 1
same,"microtubule assembly, normalized (absence of αB crystallin = 1.0)","Bovine brain tubulin [1]; ratios between 4:1 and 1.2, FIG. 5",> 1.0
same,"microtubule assembly, normalized (absence of αB crystallin = 1.0)","Bovine brain tubulin [1]; tubulin to αB crystallin ratios >4:1, FIG. 5",1.0
same,"effect on microtubule assembly, vs absence of αB crystallin",Bovine brain tubulin [1],increased
same,increase of microtubule assembly,"Bovine brain tubulin [1]; αB crystallin protein (4.3 μl of 80 μM), 34 μM tubulin, 37° C., 45 minutes",~41%
same,"effect on microtubule disassembly (words), vs absence of αB crystallin",pre-formed microtubules,unchanged
same,"effect on microtubule disassembly (words), vs absence of αB crystallin",pre-formed microtubules; listed as Wt αB crystallin,no effect
same,decrease of thermal aggregation of tubulin (protection),"Bovine brain tubulin [2]; full-length αB crystallin protein, 52° C., 60 minutes",65%
same,"effect on tubulin aggregation, vs absence of αB crystallin","Bovine brain tubulin [2]; 52° C., 60 minutes",decreased
"[Ca+2].[Cl-].[Cl-] [CaCl2, reference compound]",effect on total microtubule assembly / amount of microtubules formed in 45 minutes,Bovine brain tubulin [1]; [3],inhibited microtubule assembly
STSLSPFYLRPPSFLRAP,delay of initiation of microtubule assembly relative to tubulin alone,"Bovine brain tubulin [1]; 34 μM tubulin, 37° C.",approximately 5 minutes
same,effect on total microtubule assembly / amount of microtubules formed in 45 minutes,Bovine brain tubulin [1]; [3],no effect; also recorded: no change
same,effect on total microtubule assembly / amount of microtubules formed in 45 minutes,"Bovine brain tubulin [1]; 34 μM tubulin, 37° C., 45 minutes, vs tubulin alone, listed as 41STSLSPFYLRPPSFLRAP58",no effect; also recorded: little or no effect
same,effect on rate of microtubule assembly,Bovine brain tubulin [1]; [4],slowed the rate of microtubule assembly
same,effect on microtubule disassembly,pre-formed microtubules,no effect
same,effect on microtubule disassembly,pre-formed microtubules; listed as 41STSLSPFYLRPPSFLRAP58,little or no effect
same,effect on thermal aggregation of tubulin,"Bovine brain tubulin [2]; 52° C., 60 minutes",small protective effect
DRFSVNLDVKHFS,effect on total microtubule assembly / amount of microtubules formed in 45 minutes,Bovine brain tubulin [1]; [3],no effect; also recorded: without an effect
same,effect on total microtubule assembly / amount of microtubules formed in 45 minutes,"Bovine brain tubulin [1]; 34 μM tubulin, 37° C., 45 minutes, vs tubulin alone, listed as 73DRFSVNLDVKHFS85",no effect; also recorded: little or no effect
same,effect on rate of microtubule assembly,Bovine brain tubulin [1]; [4],accelerated microtubule assembly; also recorded: increased
same,effect on microtubule disassembly,pre-formed microtubules,no effect
same,effect on microtubule disassembly,pre-formed microtubules; listed as 73DRFSVNLDVKHFS85,little or no effect
same,effect on thermal aggregation of tubulin,"Bovine brain tubulin [2]; 52° C., 60 minutes",no effect
"CC(=O)O[C@H]1C(=O)[C@@]2(C)[C@H]([C@H](OC(=O)c3ccccc3)[C@]3(O)C[C@H](OC(=O)[C@H](O)[C@@H](NC(=O)c4ccccc4)c4ccccc4)C(C)=C1C3(C)C)[C@]1(OC(C)=O)CO[C@@H]1C[C@@H]2O [Paclitaxel, reference compound]",effect on rate of microtubule assembly,Bovine brain tubulin [1]; [4],accelerated microtubule assembly
FISREFHR,effect on total microtubule assembly / amount of microtubules formed in 45 minutes,Bovine brain tubulin [1]; [3],decreased the amount of microtubules formed; also recorded: inhibited
same,effect on total microtubule assembly / amount of microtubules formed in 45 minutes,"Bovine brain tubulin [1]; 34 μM tubulin, 37° C., 45 minutes, vs tubulin alone, listed as 113FISREFHR120",inhibited microtubule assembly
same,effect on rate of microtubule assembly,Bovine brain tubulin [1]; [4],slowed microtubule assembly
same,decrease of microtubule assembly,"Bovine brain tubulin [1]; synthetic peptide (4.3 μl of 2 mM), 34 μM tubulin, 37° C., 45 minutes, vs tubulin alone",approximately 45%
same,effect on microtubule disassembly,pre-formed microtubules,decreased
same,inhibition of microtubule disassembly,pre-formed microtubules,~24%
same,effect on microtubule disassembly,pre-formed microtubules; listed as 113FISREFHR120,inhibited
same,effect on thermal aggregation of tubulin,"Bovine brain tubulin [2]; 52° C., 60 minutes",decreased
same,effect on thermal aggregation of tubulin,"Bovine brain tubulin [2]; 52° C., 60 minutes, listed as 113FISREFHR120",protected
B1,microtubule assembly relative to wt αB crystallin,"Bovine brain tubulin [1]; mutant αB crystallin, FIG. 4",lower
same,"effect on microtubule assembly, vs absence of αB crystallin",Bovine brain tubulin [1],unchanged
same,microtubule disassembly relative to wt αB crystallin,"pre-formed microtubules; mutant αB crystallin, FIG. 4",similar
same,"effect on microtubule disassembly (words), vs absence of αB crystallin",pre-formed microtubules,unchanged
same,tubulin aggregation relative to wt αB crystallin,"Bovine brain tubulin [2]; mutant αB crystallin, FIG. 4",similar
same,"effect on tubulin aggregation, vs absence of αB crystallin","Bovine brain tubulin [2]; 52° C., 60 minutes",decreased
